Substrate: Nc1ncnc2c1ncn2[C@@H]1O[C@H](COP(=O)(O)OP(=O)(O)OP(=O)(O)O)[C@@H](O)[C@H]1O
Assay: adenylyl cyclase assay, cAMP by LC-MS/MS
Type: biochemical, Brachypodium distachyon

B1: BdGUCD1 (Brachypodium distachyon) (protein)
chain: MVLRTLGVDCCDGIADLGKLCHTTSIWTVDLAYLLHKFRVSFSFFTVTIGANPQYSAETFYREQLQEDIDRVDELFGKAVDAGISIQCRSISAYDIAFLLLSGHCIAIALVDKSKLISSWMNDVHDVQQFNEDSDYMGHYVVICGYDADACEFEIRDPASSRKREMVPMKSLEEARKSFGTDEDILLVSLTGKNGMKLSRKLPDSSL
notes: truncated fragment Met62-Leu268 (207 residues; full length 268 aa), N-terminal GST fusion kept (pGEX-6P-2), ~55 kDa, from E. coli BL21(DE3)pLysS
  Km: 320 µM
